Test results from patent US20120264231A1, “ASSAY FOR ORAI CALCIUM CHANNEL REGULATORS” (IMMUNE DISEASE INSTITUTE, INC., priority 2009, published 2012).

How the values were obtained:
ORAI1 = ORAI1 (Homo sapiens, UniProt Q96D31); assay: Confocal localization of mCherry-STIM1 proteins in HEK293 cells; assay type: cell-based; set-up: expressed in transfected cells; host or cells: HEK293; conditions: mCherry-STIM1 proteins coexpressed with ORAI1 in HEK293 cells
Excerpt: The localization of mCherry-STIM1 proteins in transiently-transfected HEK293 cells was investigated. mCherry-STIM1 (233-683), or (233-498) or (233-463) expressed alone, and also mCherry-STIM (233-683), or (233-498) or (233-463) expressed with ORAI-EYFP in the plasmid ratios 1:0, 0.5:1, 1:1, and 2:1 were examined. […] This is consistent with the functional assay in T cells and with recent reports in the literature (Muik, M., et al., J Biol Chem 283, 8014-8022 (2008); Penna, A., et al., Nature 456, 116-120 (2008); Ji, W., et al., Proc Natl Acad Sci USA 105, 13668-13673 (2008); Yuan, J. P., et al., Nat Cell Biol 11, 337-34 3 (2009); Muik, M., et al., J Biol Chem 284, 8421-8426 (2009); Park, C. Y., et al., Cell 136, 876-890 (2009)). […] The contrasting failure to detect binding of STIM 1 (233-463) in vitro might conceivably reflect the state of the bacterially-expressed protein as a mixture of trimers, tetramers, and undefined large aggregates. A more intriguing possibility, however, is that a weak interaction of STIM 1 (233-463) with ORAI is stabilized and rendered productive by additional proteins in mammalian cells.
An ORAI1-YFP expression plasmid was constructed by cloning the human ORAI1 cDNA (accession number NM_032790) into the vector pEYFP-N1 between the EcoRI and AgeI sites, in frame with the YFP coding sequence. mCherry-tagged STIM 1^CT fragments were made by subcloning mCherry between the BamHI and EcoRI sites of the vector pcDNA3.1(+) (Invitrogen), and subsequently inserting cDNA encoding STIM1^CT fragments between the EcoRI and XhoI sites.
HEK293 cells were transiently transfected with ORAI-YFP or mCherry-STIM plasmids using Lipofectamine 2000 (Invitrogen) according to the manufacturer's instructions. At 48 h post-transfection, confocal imaging was performed on a Zeiss LSM 510 laser scanning microscope with a 100× oil-immersion objective lens. YFP was excited at 488 nm with an argon laser and mCherry at 543 nm with a HeNe laser. All the experiments were carried out with cells bathed in Hanks' Balanced Salt Solution at 37° C.

human ORAI1 (65-301) = target: T1, human ORAI1 (65-301) (Homo sapiens, UniProt Q96D31, E106Q/N223A); assay: Pichia membrane flotation assay, membranes containing ORAI1 (65-301); assay type: binding; conditions: sucrose gradient, Western blotting
T1 construct: human ORAI1 (65-301) with an N-terminal FLAG tag; made in house; host or cells: Pichia pastoris GS115 (microsomal membranes)
Description: A membrane flotation assay was used to evaluate binding of these recombinant STIM 1 proteins to ORAI1. For these experiments ORAI1 (65-301) was expressed, an N-terminally truncated ORAI1 protein that forms functional Ca^2+ channels in mammalian cells (Li, Z., et al., J Biol Chem 282, 29448-29456 (2007)), in the yeast Pichia pastoris. Microsomal membranes were prepared from P pastoris expressing ORAI1 (65-301), layered at the bottom of a discontinuous sucrose gradient, and centrifuged. After centrifugation, the recombinant ORAI 1 was recovered near the top of the gradient in the fraction visually identified as containing membranes (FIG. 2A), as expected for an integral membrane protein.
STIM 1, ORAI 1, and D3 cpV/D4 cpV expression constructs were engineered as described herein. Recombinant STIM 1 fragments were expressed in E coli, purified, and characterized by CD spectroscopy and SEC-MALLS. Binding of STIM 1 fragments to ORAI1 channels in their normal bilayer environment was assessed in a flotation assay, using microsomal membranes prepared from the yeast P pastoris and containing human ORAI1 (65-301). Binding of STIM1 fragments to recombinant ORAI^CT was assessed in a pulldown assay using GST-tagged ORAI1^CT.
P pastoris strain GS115 was transformed with SalI-linearized pPIC3.5K-ORAI1 by electroporation and selected on plates lacking histidine. H is transformants were further grown in the presence of 0.25-4 mg/mL G418 to select for yeast that had integrated multiple copies of pPIC3.5K into the genome. Selected colonies capable of growth on 0.5-4 mg/mL G418 were grown in small-scale culture, induced with methanol as detailed below, and their level of ORAI expression determined by Western blotting for the FLAG tag. P pastoris transformants were grown in minimal dextrose medium lacking histidine and induced with 0.5% methanol for 6-18 h. Cells were pelleted at 3,000×g for 15 min at 4° C. and resuspended in breaking buffer containing 50 mM sodium phosphate, 1 mM TCEP, 1 mM EDTA, 5% glycerol and complete protease inhibitor cocktail (Roche). […]

T1 sequence (Q96D31 65-301 E106Q/N223A): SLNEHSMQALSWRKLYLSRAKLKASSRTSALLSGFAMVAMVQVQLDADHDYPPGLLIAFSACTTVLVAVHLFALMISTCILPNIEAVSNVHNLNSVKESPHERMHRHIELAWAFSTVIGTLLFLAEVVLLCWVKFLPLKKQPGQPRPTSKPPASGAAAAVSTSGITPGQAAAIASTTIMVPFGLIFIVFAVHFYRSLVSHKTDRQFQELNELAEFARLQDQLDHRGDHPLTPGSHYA
Chain of ORAI1 (Q96D31 whole entry): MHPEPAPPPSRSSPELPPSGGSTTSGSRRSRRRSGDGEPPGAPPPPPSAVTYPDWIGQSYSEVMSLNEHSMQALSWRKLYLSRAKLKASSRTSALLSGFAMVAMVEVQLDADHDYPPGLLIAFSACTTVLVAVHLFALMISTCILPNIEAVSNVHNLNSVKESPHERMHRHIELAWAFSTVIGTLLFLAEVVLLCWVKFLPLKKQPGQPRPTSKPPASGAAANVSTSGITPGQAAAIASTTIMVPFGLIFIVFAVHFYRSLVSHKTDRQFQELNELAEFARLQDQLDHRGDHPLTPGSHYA

Substance | localization at plasma membrane (ORAI1) | binding to ORAI1 in membrane flotation (human ORAI1 (65-301))
STIM1 (233-463): truncated mouse STIM1 cytoplasmic fragment, residues 233-463, His-tagged recombinant protein | decorated the plasma membrane | did not bind detectably
STIM1 (233-498): truncated mouse STIM1 cytoplasmic fragment, residues 233-498, His-tagged recombinant protein | decorated the plasma membrane | clearly bound ORAI
STIM1^CT: cytoplasmic region of STIM1, mouse residues 233-685, His-tagged recombinant protein expressed in E coli | decorated the plasma membrane | rose with the membranes into the upper part of the gradient
